According to patent publication US20140235820A1, “METHODS AND COMPOSITIONS FOR MODULATING THE Wnt PATHWAY” (Genentech, Inc., priority 2010, published 2014):
Positions of bridges follow the written chain, without caps; N, C: chain ends. Residues, ends and D or L forms follow the SMILES beside them. No end group written: not given here.

Key:
[1] = target: T1, LRP6 E1 (Homo sapiens, UniProt O75581); experiment: Synthetic peptide competition binding to LRP6 E1; conditions: synthetic peptides
T1 construct: construct E1-amino acids A20-D325 of LPR6; made in house; host or cells: Tni insect cells (baculovirus, secreted)
T1 sequence (O75581 20-325): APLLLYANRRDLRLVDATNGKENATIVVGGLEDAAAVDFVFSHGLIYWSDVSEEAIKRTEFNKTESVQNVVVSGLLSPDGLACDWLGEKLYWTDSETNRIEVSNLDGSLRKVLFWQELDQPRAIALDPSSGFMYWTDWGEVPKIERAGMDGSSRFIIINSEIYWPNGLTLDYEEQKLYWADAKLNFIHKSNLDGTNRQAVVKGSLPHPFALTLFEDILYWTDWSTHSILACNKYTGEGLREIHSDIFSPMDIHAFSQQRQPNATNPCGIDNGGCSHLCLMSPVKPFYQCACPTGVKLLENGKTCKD
Protocol: Alternatively, affinities were determined by fluorescence polarization (FP). A fluorescein-modified peptide probe (30 nM) was mixed with LRP5 or LRP6 E1 domain at a concentration suitable for the affinity of the particular target-probe combination (approximately Kd). Competing test agent (protein or peptide) was then added and FP monitored as a function of concentration of the test agent Inhibition constants were obtained by fitting the resulting curves to standard equations using the program KaleidaGraph (Synergy Software).
Peptide affinities were also determined by competition with phage displaying a binding peptide (competition phage ELISA). Serial dilutions of test peptide were mixed with an appropriate (non-saturating) concentration of phage before exposing the mixture to target and allowing it to reach equilibrium. After washing to remove unbound material, bound phage were detected by incubation with anti-M13 antibody-horseradish peroxidase (HRP) conjugate and exposure to a suitable colorometric HRP substrate.
Finally, peptide affinities were also determined by competition ELISA. Maxi-Sorb plates (Nunc) were coated with streptavidin or NeutrAvidin (5 μg/mL in phosphate-buffered saline (PBS); overnight, 4° C.) then blocked with 0.2% bovine serum albumin (BSA) in PBS (1 h, room temperature). A solution (500 nM in PBS) of biotinylated E1-binding peptide Ac-[…](biotin)-am (disulfide) was added to each well for 30 min, and the wells were then washed 3× with PBS containing 0.05% Tween-20 to remove excess peptide. His-tagged E1 domain or FLAG-tagged E1E2 protein (5-10 nM final concentration) was preincubated for 15 minutes with serially diluted test peptide before addition of the mixture to wells of the assay plate for 30 min. Wells were washed and then probed for bound LRP6 by addition of Qiagen penta His-HRP conjugate or Sigma anti-FLAG M2 HRP conjugate (1:2000 dilution in PBS, 0.2% BSA, 0.05% Tween-20) for 30 min. After washing, TMB substrate was added (Kirkegaard and Perry Laboratories). Wells were quenched with 1 M H3PO4 and plates read at 450 nm. […]

[2] = target: T2, human LRP6 construct E1 (amino acids A20-D325) (human, UniProt O75581 20-325); experiment: X-ray co-crystal structure
T2 construct: range 20-325; In the Fab crystal E1 arose from E1E2 degraded beyond Arg 335; residues Ala20 to Lys324 were traced; also called LRP6 E1; E1 domain
T2 sequence (looked up): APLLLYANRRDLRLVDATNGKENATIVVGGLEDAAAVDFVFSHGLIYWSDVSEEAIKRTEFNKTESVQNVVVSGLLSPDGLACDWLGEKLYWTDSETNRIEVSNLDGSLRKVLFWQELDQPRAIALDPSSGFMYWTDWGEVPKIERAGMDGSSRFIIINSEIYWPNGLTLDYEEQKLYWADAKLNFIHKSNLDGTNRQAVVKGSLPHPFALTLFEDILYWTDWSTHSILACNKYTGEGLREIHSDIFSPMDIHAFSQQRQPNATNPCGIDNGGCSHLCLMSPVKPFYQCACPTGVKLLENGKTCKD
Excerpt: The diffraction data were collected using a monochromatic X-ray beam (12398.1 eV) at the Advanced Light Source (ALS) beam line 5.0.2. The X-ray detection device was an ADSC quantum-210 CCD detector placed 350 mm away from the crystal. Alternatively, data were collected at Stanford Synchrotron Radiation Laboratory (SSRL71), Advanced Photon Souce (APS211DF), or in-house using a Rigaku X-ray generator model 007HF coupled to a Rigaku CCD camera (007HF/Saturn 944+). Prior to data collection, crystals were transferred into cryo-protective solutions containing 25% glycerol, followed by flash freezing in liquid nitrogen. Rotation method was applied to a single crystal for collection of the complete data set, with 1° oscillation per frame and total wedge size of 180°. The data were then indexed, integrated, and scaled using program HKL2000 (45). The LRP6 E1/Fab structure was phased by the molecular replacement (MR) method using program Phaser (CCP4, Daresbury, England). […] The search models of Fab subunits were derived from the crystal structure of an HGFA/Fab complex (46). The search model of the β-propeller domain was a homology model generated through the ESyPred3D web server (47); the structure of the extracellular domain of LDL receptor (48) was used as the homology modeling template. […] LRP6-peptide complex structures were determined by molecular replacement, using the LRP6E1 domain from the Fab complex as the search model. Peptides were built manually into the electron density. Manual rebuilding was done with the program COOT (49). Structure refinement was carried out with programs REFMAC5 (50) and PHENIX (51) using the maximum likelihood target functions, anisotropic individual B-factor refinement (peptide complexes only.

[3] = test system: LRP6 E1E2 variants with LRP5 BMD substitutions; experiment: Steady-state affinity for LRP6 E1E2 variants carrying LRP5 BMD substitutions; assay type: binding, human
Protocol: FIG. 13. Introduction of LRP5 BMD substitutions into LRP6 E1E2 lowers affinity for Wnt inhibitors. The five substitutions characterized are indicated on the y-axis. Steady-state affinity measurements were made for Wnt9b, Dkk1, and sclerostin binding to each of the LRP6 variants.
Binding kinetics were measured by biolayer interferometry using an Octet Red instrument (ForteBio) as previously described (11). Streptavidin (SA) biosensors were loaded with biotinylated hLRP6 in 50 mMTris, pH 8, 300 mM NaCl, 5% (v/v) glycerol, and 0.05% (w/v) Triton X-100. The loaded biosensors were washed in the same buffer before carrying out association and dissociation measurements for the indicated times. The Kd of each interaction was determined using steady state-analysis through the Octet Red software v6.3. Each reported value represents an average of three or more experiments at different concentrations, with a fitted experimental curve for which the square of the correlation coefficient (R^2) is above 0.96.
Cells transfected with LRP5 variants carrying BMD mutations show reduced binding to sclerostin and are less sensitive to sclerostin inhibition of Wnt10b or Wnt6 signaling (70). To further test the effects of the BMD substitutions, we introduced several of them into LRP6 E1E2, with the results shown in FIG. 13. LRP6 E1E2 Gly158Val could not be expressed in insect cells. […] Importantly, not only is the binding to sclerostin affected (70), but the binding of Dkk1 to its E1 interaction site is also impaired.

CC[C@H](C)[C@@H]1NC(=O)[C@H](CO)NC(=O)[C@H](CC(N)=O)NC(=O)[C@H]([C@@H](C)O)NC(=O)[C@@H](NC(=O)[C@@H](N)CO)CSSC[C@@H](C(=O)N[C@@H](Cc2ccc(O)cc2)C(=O)NCC(=O)O)NC(=O)[C@H](CCC(N)=O)NC(=O)[C@@H]2CCCN2C(=O)[C@@H]2CCCN2C1=O [BBI mimetic] (H-SCTNSIPPQCYG-OH; disulfide 2-10; N-terminus and C-terminus assumed)
binding / affinity for LRP6 E1 (in words) [1]: binds

amide-cyclized variant of the Dkk1 7-mer peptide: Dkk1 7-mer with Ser2 substituted by Lys and Asn7 by Asp, side chains joined by an amide bond (NKNAIKD; lactam 2-7)
binding / affinity for LRP6 E1 (in words) ([1]; listed as cyclized peptide): binds
binding / affinity for LRP6 E1 (in words) ([1]; listed as target cyclic peptide): affinity equivalent to the parent Dkk1 peptide

B1: Ac-SNSIKFYA-am (peptide)
peptide: Ac-SNSIKFYA-NH2
notes: also called linear peptide from Exemplary Family 1; parent Ile peptide
binding result [2]: binds

B2: Ac-GSLCSNRIKPDTHCSS-am (disulfide) (peptide)
peptide: Ac-GSLCSNRIKPDTHCSS-NH2
modifications: disulfide 4-14 (inferred)
notes: also called Peptide C; CX9C class member of Exemplary Family 2
binding result [2]: binds

B3: Ac-CNSIKLC-am (disulfide) (peptide)
peptide: Ac-CNSIKLC-NH2
modifications: disulfide 1-7 (inferred)
notes: also called CX5C class member of Exemplary Family 2
binding result [2]: binds

B4: Ac-CNSIKCL-am (disulfide) (peptide)
peptide: Ac-CNSIKCL-NH2
modifications: disulfide 1-6 (inferred)
notes: also called CX4C class member of Exemplary Family 2
binding result [2]: binds

B5: Wnt9b: Wnt9b, carrier-free protein from R&D Systems (protein, UniProt O14905 23-357, looked up)
Protein Wnt-9b: SYFGLTGREVLTPFPGLGTAAAPAQGGAHLKQCDLLKLSRRQKQLCRREPGLAETLRDAAHLGLLECQFQFRHERWNCSLEGRMGLLKRGFKETAFLYAVSSAALTHTLARACSAGRMERCTCDDSPGLESRQAWQWGVCGDNLKYSTKFLSNFLGSKRGNKDLRARADAHNTHVGIKAVKSGLRTTCKCHGVSGSCAVRTCWKQLSPFRETGQVLKLRYDSAVKVSSATNEALGRLELWAPARQGSLTKGLAPRSGDLVYMEDSPSFCRPSKYSPGTAGRVCSREASCSSLCCGRGYDTQSRLVAFSCHCQVQWCCYVECQQCVQEELVYTCKH
effect of LRP6 BMD mutations on binding to LRP6 E1E2 (in words) [3]: little to no effect
change in affinity for the LRP6 E1E2 BMD variants compared to wild type ([3]; five substitutions characterized): ≤ 5 fold
